Data on 42 molecules can be found in patent publication US20090221680, “Aptamers that bind thrombin with high affinity” (published 2009).

Data set [1] deals with T1, thrombin (alpha-thrombin) (Homo sapiens, UniProt P00734;P00734 P00734:315-363,P00734:364-622). Kind of data set: filter.
Data set [2] concerns the target prothrombin (Homo sapiens, UniProt P00734 P00734:44-622). Description: filter; 50 nM prothrombin. Particulars: tags: Athens Research. The method, then:
Dot blot binding assays were performed throughout the selections to monitor the protein binding affinity of the pools. Trace ³²P-labeled RNA was combined with a dilution series of human Thrombin (1 nM-1000 nM) and incubated at room temperature for 30 minutes in 1×DPBS (w/ Ca²⁺ and Mg²⁺) (Gibco, Catalog #14040, Invitrogen, Carlsbad, Calif.) plus 0.1 mg/ml BSA in a final volume of 30 μl. The binding reactions were analyzed by nitrocellulose filtration using a Minifold I dot-blot, 96-well vacuum filtration manifold (Schleicher & Schuell, Keene, N.H.). A three-layer filtration medium was used, consisting (from top to bottom) of Protran nitrocellulose (Schleicher & Schuell, Keene, N.H.), Hybond-P nylon (Amersham Biosciences, Piscataway, N.J.) and GB002 gel blot paper (Schleicher & Schuell, Keene, N.H.). RNA that is bound to protein is captured on the nitrocellulose filter, whereas the non-protein bound RNA is captured on the nylon filter. The gel blot paper was included simply as a supporting medium for the other filters. Following filtration, the filter layers were separated, dried and exposed on a phosphor screen (Amersham Biosciences, Piscataway, N.J.) and quantified using a Storm 860 Phosphorimager® blot imaging system (Amersham Biosciences, Piscataway, N.J.).
Based on pool binding monitored throughout the selections as described above, Round 9 Pools from both Selection #2 and #3 were also cloned using a TOPO TA Cloning kit (Invitrogen, Carlsbad, Calif.) according to manufacturer's instructions, and sequenced. Of the 136 sequences obtained from Round 9 of both selections, 130 unique sequences were selected for assaying in a single-point dot blot screen against thrombin and prothrombin to test for selective binding to thrombin. Clones were ordered from IDT (Coralville, Iowa) at 25 μmole synthesis scale. Clone transcripts were 5′ end labeled with γ̅³²P ATP and spin purified with Centrisep columns (Princeton Separations, Adelphia, N.J.) to remove excess label. Trace amounts of labeled clone were incubated with +/−10 nM Thrombin (or +/−50 nM prothrombin) and 0.1 mg/ml BSA in a total volume of 30 μl 1×DPBS (w/ Ca²⁺ and Mg²⁺) (Gibco, Catalog #14040, Invitrogen, Carlsbad, Calif.) for 30 minutes. Post incubation, the binding reaction applied the dot-blot binding assay apparatus previously described.

In data set [3] the target is T1, thrombin (alpha-thrombin). Kind of data set: filter; 10 nM thrombin.

One may read the Kd as the free concentration of one partner at which half of the binding sites on the other are occupied at equilibrium, for simple one-to-one binding.

ACTGCCTAGGTTGGGTAGGGTGGTGGCAGT (ssDNA, PS linkage between nt 4 and 5) [ARC2647] came in with a Kd in data set [1] of 0.161 nM. Same read-out and setting: next, ACTGCCTAGGTTGGGTAGGGTGGTGGCAGT (ssDNA, PS linkage between nt 18 and 19) [ARC2661]: 0.246 nM; ACTGCCTAGGTTGGGTAGGGTGGTGGCAGT (ssDNA, PS linkage between nt 29 and 30) [ARC2672]: 0.141 nM; ACTGCCTAGGTTGGGTAGGGTGGTGGCAGT (ssDNA, PS linkage between nt 22 and 23) [ARC2665]: 0.121 nM.

Turning to TCCCGTCGGTCCGTTCGGTATTTTTTTCTGGGTGGCTGAGGATCGATC (ssDNA) [AMX(399)_F10], the results for the binding signal in data set [2] and in data set [3] were 22.1 % bound and 21.3 % bound, respectively.

ACTGCCTAGGTTGGGTAGGGTGGTGGCAGT (ssDNA, PS linkage between nt 20 and 21) [ARC2663] gave a Kd in data set [1] of 0.18 nM. TCCCGAGATCTTTATAGGGTATTGTTGGTTGGGGTGGCTGAGGATCGATC (ssDNA) [AMX(399)_E12]: the binding signal stood at 25.1 % bound in data set [2] and 20.3 % bound in data set [3].

The molecule ACTGCCTAGGTTGGGTAGGGTGGTGGCAGT (ssDNA, PS linkage between nt 19 and 20) [ARC2662] registered a Kd in data set [1] of 0.165 nM. ACTGCCTAGGTTGGGTAGGGTGGTGGCAGT (ssDNA, PS linkage between nt 13 and 14) [ARC2656]: binding in data set [1] was put at a Kd of 0.151 nM. With TCCCATCGATCAGTGGTGGCTTGGCTGGTTTGGGTGGCTGAGGATCGATC (ssDNA) [AMX(399)_G6], the binding signal in data set [2] stood at 38.6 % bound; in data set [3], 39.7 % bound. On to TCCCGACTTTAGATCCGTGTTGGATGGCCTGGGTGGCTGAGGATCGATC (ssDNA) [AMX(399)_H2], for which, in data set [3], the binding signal is 5.49 % bound.

Regarding TCCCGTTCGGTCCGTATACTGGTGGTGGTTGGGTGGCTGAGGATCGATC (ssDNA) [AMX(399)_F4], the binding signal worked out at 25 % bound in data set [2] and 28.1 % bound in data set [3]. Take TCCCGATCGCTGTCCTAGGATGGGTAGGGTGGTGGCTGAGGATCGATC (ssDNA) [AMX(399)_G10]: the binding signal in data set [3] is 38.4 % bound. The molecule ACTGCCTAGGTTGGGTAGGGTGGTGGCAGT (ssDNA, PS linkage between nt 24 and 25) [ARC2667] yielded a Kd in data set [1] of 0.459 nM.

ACTGCCTAGGTTGGGTAGGGTGGTGGCAGT (ssDNA, PS linkage between nt 27 and 28) [ARC2670]: in data set [1], binding was characterised by a dissociation constant (Kd) of 0.16 nM.

For TCCCTATGGATTCGGGGTACGTTAGTTCTGGGTGGCTGAGGATCGATC (ssDNA) [AMX(399)_F11], the binding signal was 35.7 % bound in data set [2] and 35.1 % bound in data set [3]. For TCCCTTGATCCTGGTACATATATTTTCTGGGTGGCTGAGGATCGATC (ssDNA) [AMX(399)_F2], in that order: 7.92 % bound and 7.37 % bound. ACTGCCTAGGTTGGGTAGGGTGGTGGCAGT (ssDNA, PS linkage between nt 17 and 18) [ARC2660]: binding in data set [1] was put at a Kd of 0.23 nM. Turning to TCCCGAGAGATTCAAAAGGGACTGGGCGGTTGGGTGGCTGAGGATCGATC (ssDNA) [AMX(399)_H4], the binding signal in data set [3] was 7.7 % bound.

With TCCTTGTCGAGCCTTGGGGTAGTGTTGGTTTGGGTGGCTGAGGATCGATC (ssDNA) [AMX(399)_F3], the figures for the binding signal in data set [2] and in data set [3] were 8.7 % bound and 9.8 % bound, respectively. ACTGCCTAGGTTGGGTAGGGTGGTGGCAGT (ssDNA, PS linkage between nt 21 and 22) [ARC2664] came in with a Kd in data set [1] of 0.211 nM. Take TCCCGTGATCTCTGGGGTAACGTCTTGGTGTGGGTGGCTGAGGATCGATC (ssDNA) [AMX(399)_F1]: the binding signal in data set [2] was determined as 19.4 % bound; in data set [3], 16.7 % bound. In data set [3], TCCCATGTGTTAGATCCGTGTGGTTGGACTGGGTGGCTGAGGATCGATC (ssDNA) [AMX(398)_C3] showed a binding signal of 10.8 % bound.

The molecule ACTGCCTAGGTTGGGTAGGGTGGTGGCAGT (ssDNA, PS linkage between nt 9 and 10) [ARC2652] returned a Kd in data set [1] of 0.192 nM. The same measure, in the same setting: the figure for ACTGCCTAGGTTGGGTAGGGTGGTGGCAGT (ssDNA, PS linkage between nt 7 and 8) [ARC2650] is 0.23 nM. On to TCCCGCTCGATTTCGAAGAATGGTTGGTTTGGGTGGCTGAGGATCGATC (ssDNA) [AMX(398)_B11], for which the binding signal in data set [3] was 9.76 % bound. In the case of TCCCATCGAACCTCGAGGGTATTGTTGGCTTGGGTGGCTGAGGATCGATC (ssDNA) [AMX(399)_G3], the binding signal was found to be 22.6 % bound in data set [2] and 20.8 % bound in data set [3]. In data set [1], ACTGCCTAGGTTGGGTAGGGTGGTGGCAGT (ssDNA, PS linkage between nt 11 and 12) [ARC2654] registered a Kd of 0.095 nM. Turning to TCCCGCTATTCGATCTTCAATTGGGTGGTCAGGGTGGCTGAGGATCGATC (ssDNA) [AMX(399)_F9], the binding signal in data set [2] was 26 % bound; in data set [3], 25.2 % bound. Turning to TCCCATCGTCTGTGGTATAGGAACTTCTGGGTGGCTGAGGATCGATC (ssDNA) [AMX(399)_G2], the binding signal in data set [2] turned out to be 7.28 % bound; in data set [3] it was 18.8 % bound. For TCCCGATCGGTCCCAAGGGTATTGTTGGTTTGGGTGGCTGAGGATCGATC (ssDNA) [AMX(399)_F7], in that order: 34.2 % bound and 29.6 % bound. The molecule ACTGCCTAGGTTGGGTAGGGTGGTGGCAGT (ssDNA, PS linkage between nt 15 and 16) [ARC2658] came in with a Kd in data set [1] of 0.253 nM. Same read-out and setting: the figure for ACTGCCTAGGTTGGGTAGGGTGGTGGCAGT (ssDNA, PS linkage between nt 8 and 9) [ARC2651] is 0.111 nM; for ACTGCCTAGGTTGGGTAGGGTGGTGGCAGT (ssDNA, PS linkage between nt 25 and 26) [ARC2668] it is 0.159 nM; for ACTGCCTAGGTTGGGTAGGGTGGTGGCAGT (ssDNA, PS linkage between nt 6 and 7) [ARC2649] it is 0.264 nM. As to ACTGCCTAGGTTGGGTAGGGTGGTGGCAGT (ssDNA, PS linkage between nt 5 and 6) [ARC2648], in data set [1], the affinity, expressed as Kd, was 0.128 nM.

Molecule ACTGCCTAGGTTGGGTAGGGTGGTGGCAGT (ssDNA, PS linkage between nt 14 and 15) [ARC2657] had a dissociation constant Kd in data set [1] of 0.219 nM. With TCCCGGTATCGTCATGCTGGTGGAATTGGTTGGGTGGCTGAGGATCGATC (ssDNA) [AMX(399)_G5], the binding signal in data set [2] stood at 18.9 % bound; in data set [3], 23.2 % bound.

Take TCCCAAGATCGATGCTGGTAGTGTTTTCTGGGTGGCTGAGGATCGATC (ssDNA) [AMX(399)_F6]: the binding signal in data set [2] was found to be 11.9 % bound; in data set [3], 10 % bound. Consider ACTGCCTAGGTTGGGTAGGGTGGTGGCAGT (ssDNA, PS linkage between nt 28 and 29) [ARC2671], for which binding in data set [1] was characterised by a dissociation constant (Kd) of 0.158 nM. Still for that read-out and setting: the figure for ACTGCCTAGGTTGGGTAGGGTGGTGGCAGT (ssDNA, PS linkage between nt 26 and 27) [ARC2669] is 0.129 nM; for ACTGCCTAGGTTGGGTAGGGTGGTGGCAGT (ssDNA, PS linkage between nt 3 and 4) [ARC2646] it is 0.169 nM.
